In WO2020219978A1:

Columns and labels:
[1] = molecular target: BCMA on the BCMA+ cell lines (NCI-H929, L363, JJN-3, RPMI-8226, HEK293T-huBCMA, HEK293T-cynoBCMA); assay: flow cytometry on BCMA+ cell lines
[2] = molecular target: cynomolgus BCMA (cyno-BCMA), as used in SPR (cynomolgus monkey); assay: SPR
Sequence of cynomolgus BCMA (cyno-BCMA), as used in SPR (cynomolgus monkey) (chain, as listed by the source): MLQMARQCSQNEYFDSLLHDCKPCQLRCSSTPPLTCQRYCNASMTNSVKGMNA

- EC50 [1]: 3.4 to 15.2 nM
- fold higher affinity than to rodent BCMA [2]: 10 fold
Substance: CC-93269, bispecific trivalent anti-BCMA/anti-CD3 T cell engaging antibody (TCE) (bispecific antibody)
